What is called koff is a measure of how fast the partners let go of each other. Higher therefore signals a short-lived complex. What is called kon is the second-order rate constant of association. By Kd is commonly meant the concentration at which binding is half-saturated. Low values mean higher affinity, high ones lower affinity.

Test [1] deals with RSV F protein (immobilised antigen of Example 6.1) (respiratory syncytial virus). As to the kind of experiment: BIAcore. (In SPR one partner is held on a chip, and binding of the other changes the refractive index at the surface.)
In test [2] the target is F protein of RSV Long strain on infected HEp-2 cells (respiratory syncytial virus Long strain, UniProt P12568 26-574). Description: cell-based or functional assay.
In the next test the target is Bac-F (respiratory syncytial virus). As to the kind of experiment: BIAcore, (1:1).

Where “and” joins values, the source holds several entries; their conditions need not be identical. Equal entries are not always repeated.

Sequence of RSV F protein (immobilised antigen of Example 6.1) (respiratory syncytial virus) (P03420 26-524): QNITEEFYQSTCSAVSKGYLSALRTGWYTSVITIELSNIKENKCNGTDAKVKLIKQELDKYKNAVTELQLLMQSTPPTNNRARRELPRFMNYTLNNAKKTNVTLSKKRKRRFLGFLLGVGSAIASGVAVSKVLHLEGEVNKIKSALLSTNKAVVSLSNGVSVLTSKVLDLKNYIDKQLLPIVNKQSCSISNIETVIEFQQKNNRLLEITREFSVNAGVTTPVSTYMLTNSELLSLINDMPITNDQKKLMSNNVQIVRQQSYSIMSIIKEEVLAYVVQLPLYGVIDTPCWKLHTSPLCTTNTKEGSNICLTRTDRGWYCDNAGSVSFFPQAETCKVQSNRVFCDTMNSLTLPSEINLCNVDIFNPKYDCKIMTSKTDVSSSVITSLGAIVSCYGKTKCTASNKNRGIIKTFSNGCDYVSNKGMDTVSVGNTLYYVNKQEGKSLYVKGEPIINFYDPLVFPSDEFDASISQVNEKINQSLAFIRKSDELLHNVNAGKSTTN
Sequence of Bac-F (respiratory syncytial virus) (P03420 26-524): as above
Sequence of F protein of RSV Long strain on infected HEp-2 cells (P12568 26-574): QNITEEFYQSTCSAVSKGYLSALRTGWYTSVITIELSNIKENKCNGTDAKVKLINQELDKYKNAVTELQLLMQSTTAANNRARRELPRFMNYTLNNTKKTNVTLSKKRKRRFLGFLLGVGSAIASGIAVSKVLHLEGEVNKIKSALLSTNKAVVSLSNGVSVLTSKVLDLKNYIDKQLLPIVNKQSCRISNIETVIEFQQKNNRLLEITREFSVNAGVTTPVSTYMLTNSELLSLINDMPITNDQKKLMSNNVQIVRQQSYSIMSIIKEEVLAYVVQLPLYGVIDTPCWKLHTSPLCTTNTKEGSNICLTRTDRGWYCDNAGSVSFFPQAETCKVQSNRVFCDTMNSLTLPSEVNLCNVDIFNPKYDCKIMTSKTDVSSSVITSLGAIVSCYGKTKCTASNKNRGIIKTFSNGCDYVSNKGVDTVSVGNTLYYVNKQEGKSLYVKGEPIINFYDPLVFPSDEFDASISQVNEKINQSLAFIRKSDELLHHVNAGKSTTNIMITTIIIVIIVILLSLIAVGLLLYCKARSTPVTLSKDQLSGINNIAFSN

B1: P11d4 Fab (Fab, V domains shown)
VH: QVTLRESGPALVKPTQTLTLTCTFSGFSLSTPGMSVGWIRQPPGKALEWLADIWWDGKKHYNPSLKDRLTISKDTSKNQVVLKVTNMDPADTATYYCARDMIFNWYFDVWGQGTTVTVSS
VL: DIQMTQSPSTLSASVGDRVTITCSPSSRVGYMHWYQQKPGKAPKLLIYDTMRLASGVPSRFSGSGSGTEFTLTISSLQPDDFATYYCFQGSGYPFTFGGGTKVEIK
notes: Fab
For B1, in test [1], the koff is 0.000717 s⁻¹; the kon was 570000 M⁻¹ s⁻¹ and 572000 M⁻¹ s⁻¹. Besides, in test [2], the “RSV microneutralization IC50” value was 0.292 µg/ml and 5.84 nM.

B2: A13c4 Fab (Fab, V domains shown)
VH: QVTLRESGPALVKPTQTLTLTCTFSGFSLSTAGMSVGWIRQPPGKALEWLADIWWDGKKSYNPSLKDRLTISKDTSKNQVVLKVTNMDPADTATYYCARDMIFNFYFDVWGQGTTVTVSS
VL: DIQMTQSPSTLSASVGDRVTITCSLSSRVGYMHWYQQKPGKAPKLLIYDTMYQSSGVPSRFSGSGSGTEFTLTISSLQPDDFATYYCFQGSGYPFTFGGGTKVEIK
notes: Fab
Regarding B2, in test [1], the off-rate (koff) worked out at 0.00028 s⁻¹; the kon was 781000 M⁻¹ s⁻¹ and 735000 M⁻¹ s⁻¹.

B3: A13a11 Fab (Fab, V domains shown)
VH: QVTLRESGPALVKPTQTLTLTCTFSGFSLSTAGMSVGWIRQPPGKALEWLADIWWDDKKHYNPSLKDRLTISKDTSKNQVVLKVTNMDPADTATYYCARDMIFNWYFDVWGQGTTVTVSS
VL: DIQMTQSPSTLSASVGDRVTITCSPSSRVGYMHWYQQKPGKAPKLLIYDTYRHSSGVPSRFSGSGSGTEFTLTISSLQPDDFATYYCFQGSGYPFTFGGGTKVEIK
notes: Fab
In test [1], B3 returned a koff of 0.00025 s⁻¹ and a kon of 735000 M⁻¹ s⁻¹.

B4: A12a6 Fab (Fab, V domains shown)
VH: QVTLRESGPALVKPTQTLTLTCTFSGFSLSTAGMSVGWIRQPPGKALEWLADIWWDGKKDYNPSLKDRLTISKDTSKNQVVLKVTNMDPADTATYYCARDMIFNFYFDVWGQGTTVTVSS
VL: DIQMTQSPSTLSASVGDRVTITCSASSRVGYMHWYQQKPGKAPKLLIYDTFKLSSGVPSRFSGSGSGTEFTLTISSLQPDDFATYYCFQGSGYPFTFGGGTKVEIK
notes: Fab
In test [1], B4 returned a koff of 0.00023 s⁻¹ and a kon of 743000 M⁻¹ s⁻¹.

B5: A1e9 Fab (Fab, V domains shown)
VH: QVTLRESGPALVKPTQTLTLTCTFSGFSLSTAGMSVGWIRQPPGKALEWLADIWWDGKKHYNPSLKDRLTISKDTSKNQVVLKVTNMDPADTATYYCARDMIFNWYFDVWGQGTTVTVSS
VL: DIQMTQSPSTLSASVGDRVTITCSLSSRVGYMHWYQQKPGKAPKLLIYDTFKLSSGVPSRFSGSGSGTEFTLTISSLQPDDFATYYCFQGSGYPFTFGGGTKVEIK
notes: Fab; also called Ale9
Consider B5, for which, in test [1], the koff came out at 0.000453 s⁻¹ and the kon came to 790000 M⁻¹ s⁻¹.

B6: P12f2 Fab (Fab, V domains shown)
VH: QVTLRESGPALVKPTQTLTLTCTFSGFSLSTPGMSVGWIRQPPGKALEWLADIWWDDKKHYNPSLKDRLTISKDTSKNQVVLKVTNMDPADTATYYCARDMIFNFYFDVWGQGTTVTVSS
VL: DIQMTQSPSTLSASVGDRVTITCSLSSRVGYMHWYQQKPGKAPKLLIYDTFYLSSGVPSRFSGSGSGTEFTLTISSLQPDDFATYYCFQGSGYPFTFGGGTKVEIK
notes: Fab
In test [1], B6 displayed a koff of 0.000282 s⁻¹ and a kon of 663000 M⁻¹ s⁻¹.

B7: AFFF(1) IgG (antibody, V domains shown)
VH: QVTLRESGPALVKPTQTLTLTCTFSGFSLSTAGMSVGWIRQPPGKALEWLADIWWDDKKDYNPSLKSRLTISKDTSKNQVVLKVTNMDPADTATYYCARSMITNFYFDVWGQGTTVTVSS
VL: DIQMTQSPSTLSASVGDRVTITCSASSSVGYMHWYQQKPGKAPKLLIYDTFKLASGVPSRFSGSGSGTEFTLTISSLQPDDFATYYCFQGSFYPFTFGGGTKVEIKR
notes: IgG1/kappa
Take B7: in test [1], the koff was 0.000274 s⁻¹ and 0.000266 s⁻¹ and 0.000206 s⁻¹; the kon was 108000 M⁻¹ s⁻¹ and 96000 M⁻¹ s⁻¹ and 124000 M⁻¹ s⁻¹.

B8: 1X-493L1FR Fab (Fab, V domains shown)
VH: QVTLRESGPALVKPTQTLTLTCTFSGFSLSTSGMSVGWIRQPPGKALEWLADIWWDDKKDYNPSLKSRLTISKDTSKNQVVLKVTNMDPADTATYYCARSMITNWYFDVWGQGTTVTVSS
VL: DIQMTQSPSTLSASVGDRVTITCSASSSVGYMHWYQQKPGKAPKLLIYDTSKLASGVPSRFSGSGSGTEFTLTISSLQPDDFATYYCFQGSGYPFTFGGGTKVEIK
notes: also called IX-493L1FR
As for B8, in test [1], the koff is 0.00065 s⁻¹ and the kon turned out to be 185000 M⁻¹ s⁻¹.

B9: A4B4 IgG (antibody, V domains shown)
VH: QVTLRESGPALVKPTQTLTLTCTFSGFSLSTAGMSVGWIRQPPGKALEWLADIWWDDKKHYNPSLKDRLTISKDTSKNQVVLKVTNMDPADTATYYCARDMIFNFYFDVWGQGTTVTVSS
VL: DIQMTQSPSTLSASVGDRVTITCSASSRVGYMHWYQQKPGKAPKLLIYDTFFLDSGVPSRFSGSGSGTEFTLTISSLQPDDFATYYCFQGSGYPFTFGGGTKVEIKR
notes: IgG1/kappa
Take B9: in the test with Bac-F, the Kd was 20 pM, the koff came to 1.06e-05 s⁻¹, the kon was 434000 M⁻¹ s⁻¹ and the “number in parentheses after KD (ratio to palivizumab = 1)” value turned out to be 195 fold.

B10: AFFF(1) Fab (Fab, V domains shown)
VH: QVTLRESGPALVKPTQTLTLTCTFSGFSLSTAGMSVGWIRQPPGKALEWLADIWWDDKKDYNPSLKSRLTISKDTSKNQVVLKVTNMDPADTATYYCARSMITNFYFDVWGQGTTVTVSS
VL: DIQMTQSPSTLSASVGDRVTITCSASSSVGYMHWYQQKPGKAPKLLIYDTFKLASGVPSRFSGSGSGTEFTLTISSLQPDDFATYYCFQGSFYPFTFGGGTKVEIK
notes: Fab; also called AHH(1)
As for B10, in test [1], the koff was 0.000245 s⁻¹ and 0.000446 s⁻¹ and 0.000268 s⁻¹; the kon was 212000 M⁻¹ s⁻¹ and 156000 M⁻¹ s⁻¹ and 186000 M⁻¹ s⁻¹.

The values above are taken from patent publication US20100098708A1 (AstraZeneca / MedImmune, published 2010).
